{"source": "patent US20200071687", "proteins": {"B1": {"name": "Subtilisin Carlsberg variant B24 (protein)", "chain": "AQTVPYGIPLIKADKVQAQGFKNVKVAVLDTGIQASHPDLNVVGGASFVAGEAYNTDGNGHGTHVAGTVAALGNTTGVLGVAPSVSLYAVKVLNSSGSGSYSGIVSGIEWATTNGMDVINMSLGGASGSTAMKQAVDNAYAKGVVVVAAGNSGSSGNTNTIGYPAKYDSVIAVGAVDSNSNRASFSSVGAELEVMAPGAGYSTYPTNTYATLNGTSMASPHVAGAAALIMSKHPNLSASQVRNRLSSTATYLGSSFYYGKGLINVEAAAPHHHHH"}, "B2": {"name": "proteinase K (protein)", "chain": "AAQTNAPWGLARISSTSPGTSTYYYDESAGQGSCVYVIDTGIEASHPEFEGRAQMVKTYYYSSRDGNGHGTHCAGTVGSRTYGVAKKTQLFGVKVLDDNGSGQYSTIIAGMDFVASDKNNRNCPKGVVASLSLGGGYSSSVNSAAARLQSSGVMVAVAAGNNNADARNYSPASEPSVCTVGASDRYDRRSSFSNYGSVLDIFGPGTSILSTWIGGSTRSISGTSMATPHVAGLAAYLMTLGKTTAASACRYIADTANKGDLSNIPFGTVNLLAYNNYQA"}}, "key": {"[1]": {"target": "restriction enzyme Ase I"}, "[2]": {"target": "catalase"}, "[3]": {"target": "T1, RNase A, P61823", "T1 chain": "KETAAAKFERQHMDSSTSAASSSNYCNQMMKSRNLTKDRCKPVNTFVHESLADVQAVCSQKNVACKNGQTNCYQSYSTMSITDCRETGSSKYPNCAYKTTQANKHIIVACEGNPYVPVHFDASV"}}}
{"protein": "B1", "values": [{"measurement": "digestion of Ase I, 1 hour at 37° C. (SDS-PAGE, Coomassie)", "setting": "[1]", "result": "subtilisin B24 variant can digest Ase I in one hour at 37 °C"}, {"measurement": "digestion of the substrate protein in the presence of detergents (SDS-PAGE, Coomassie)", "setting": "[2]", "result": "can digest catalase (FIG. 11A) and RNAase (FIG. 11B) up to at least a 2.0% SDS concentration; catalase (FIG. 11C) and RNAase (FIG. 11D) up to at least a 2.0% Triton X-100 concentration"}, {"measurement": "degradation of RNaseA, 1 hour at 37° C. (SDS-PAGE, Coomassie)", "setting": "[3]", "result": "both the subtilisin B24 variant and proteinase K can degrade RNaseA"}, {"measurement": "digestion of the substrate protein in the presence of detergents (SDS-PAGE, Coomassie)", "setting": "[3]", "result": "can digest catalase (FIG. 11A) and RNAase (FIG. 11B) up to at least a 2.0% SDS concentration; catalase (FIG. 11C) and RNAase (FIG. 11D) up to at least a 2.0% Triton X-100 concentration; and RNAase (FIG. 11E) up to at least a 2% CTAB concentration"}]}
{"protein": "B2", "values": [{"measurement": "digestion of Ase I, 1 hour at 37° C. (SDS-PAGE, Coomassie)", "setting": "[1]", "result": "while Proteinase K cannot"}, {"measurement": "degradation of RNaseA, 1 hour at 37° C. (SDS-PAGE, Coomassie)", "setting": "[3]", "result": "both the subtilisin B24 variant and proteinase K can degrade RNaseA"}]}
